# Data: patent US20260083641
# System: collagen
Substance,"fluorescence intensity, in vitro collagenase activity assay",collagenase activity relative to COLG
"N-terminally truncated recombinant collagenase G (ColG) from Clostridium histolyticum, residues Tyr119-Lys1118, with N-terminal His-tag and TEV cleavage site",where all the reaction components were included (two most right bars) significantly higher fluorescence was detected,
commercial collagenase (C.COL) (Sigma-Aldrich),where all the reaction components were included (two most right bars) significantly higher fluorescence was detected,"the activity of C.COL was significantly higher, increase of about 30%-40%, than that of COLG"
